Source: US20260042847A1 (Zymeworks, published 2026)
Positions count from the first letter of the chain named.

Tests used:
[1] = molecular target: T1, c-Met (UniProt P08581 25-1390, limits assumed); assay: flow cytometry on EBC-1 cells
T1 construct: whole, on cells; Target on cells

[2] = molecular target: CD64a (FcγRI) (UniProt P12314 16-288, limits assumed); assay: SPR, antibody captured on Protein A, FcγR injected
[3] = molecular target: T1, c-Met; assay: flow cytometry on EBC-1 cells, apparent Kd
[4] = molecular target: T2, Human FcRn with a C-terminal biotin on the large subunit (Human, UniProt P55899 24-297; P61769 21-119, C-terminal biotin); assay: SPR, FcRn captured, antibody injected, pH 5.9
T2 construct: Captured on neutravidin for SPR; also called neonatal Fc receptor
T2 sequence (P55899 24-297 limits assumed, chain 1 of 2): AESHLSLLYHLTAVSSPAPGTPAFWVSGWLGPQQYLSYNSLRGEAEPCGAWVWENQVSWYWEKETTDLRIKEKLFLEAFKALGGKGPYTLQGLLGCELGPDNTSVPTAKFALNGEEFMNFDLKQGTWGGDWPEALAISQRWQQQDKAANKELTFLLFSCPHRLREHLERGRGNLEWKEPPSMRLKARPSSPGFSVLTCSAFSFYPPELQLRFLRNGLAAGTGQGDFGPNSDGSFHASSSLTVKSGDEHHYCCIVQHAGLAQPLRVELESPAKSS
T2 sequence (P61769 21-119 limits assumed, chain 2 of 2): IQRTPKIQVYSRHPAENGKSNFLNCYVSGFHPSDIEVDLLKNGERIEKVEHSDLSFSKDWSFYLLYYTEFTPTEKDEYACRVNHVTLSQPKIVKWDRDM

[5] = molecular target: T1, c-Met; assay: flow cytometry on BT-20 cells, apparent Kd
[6] = molecular target: T1, c-Met; assay: flow cytometry on H292 cells, apparent Kd
[7] = molecular target: T3, CD32a (FcγRIIA), allelic form Arg131 (UniProt P12318 36-218, limits assumed); assay: SPR, antibody captured on Protein A, FcγR injected
T3 construct: also called CD32aR
T3 sequence (looked up): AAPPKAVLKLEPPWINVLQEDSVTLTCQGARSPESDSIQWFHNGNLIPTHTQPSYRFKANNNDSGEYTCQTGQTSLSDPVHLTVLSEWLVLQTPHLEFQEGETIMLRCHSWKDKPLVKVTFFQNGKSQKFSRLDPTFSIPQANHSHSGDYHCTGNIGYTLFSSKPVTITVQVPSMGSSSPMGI

[8] = molecular target: T4, CD16a (FcγRIIIA), allelic form V158 (UniProt P08637 17-208); assay: SPR, antibody captured on Protein A, FcγR injected
T4 construct: also called CD16aV
T4 sequence (P08637 17-208 F176V limits assumed): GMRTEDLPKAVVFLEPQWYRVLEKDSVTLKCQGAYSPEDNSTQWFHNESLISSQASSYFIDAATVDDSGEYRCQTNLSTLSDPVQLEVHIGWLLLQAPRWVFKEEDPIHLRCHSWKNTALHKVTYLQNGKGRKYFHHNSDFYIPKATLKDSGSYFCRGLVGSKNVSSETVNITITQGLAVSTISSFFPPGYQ

[9] = molecular target: T5, CD32b (FcγRIIB) (UniProt P31994 43-217, limits assumed); assay: SPR, antibody captured on Protein A, FcγR injected
T5 construct: The 'Y' of CD32bY is not explained; also called CD32bY
T5 sequence (looked up): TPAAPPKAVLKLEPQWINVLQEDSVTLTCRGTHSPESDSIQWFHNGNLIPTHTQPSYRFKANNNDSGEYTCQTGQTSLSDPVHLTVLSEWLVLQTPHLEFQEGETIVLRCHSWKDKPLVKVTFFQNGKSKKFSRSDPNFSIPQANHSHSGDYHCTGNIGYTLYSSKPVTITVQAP

[10] = molecular target: CD16a (FcγRIIIA), allelic form F158 (UniProt P08637 17-208); assay: SPR, antibody captured on Protein A, FcγR injected
Sequence of CD16a (FcγRIIIA), allelic form F158 (P08637 17-208 limits assumed): as the sequence (P08637 17-208 F176V limits assumed) above, with V160F counted along it

[11] = molecular target: T6, CD32a (FcγRIIA), allelic form His131 (UniProt P12318 36-218, limits assumed); assay: SPR, antibody captured on Protein A, FcγR injected
T6 construct: also called CD32aH
T6 sequence (looked up): T3 sequence (looked up) with R132H

[12] = molecular target: T1, c-Met; assay: flow cytometry on EBC-1 cells, apparent Kd; remark: listed apart in the source

T1 sequence (P08581 25-1390 limits assumed): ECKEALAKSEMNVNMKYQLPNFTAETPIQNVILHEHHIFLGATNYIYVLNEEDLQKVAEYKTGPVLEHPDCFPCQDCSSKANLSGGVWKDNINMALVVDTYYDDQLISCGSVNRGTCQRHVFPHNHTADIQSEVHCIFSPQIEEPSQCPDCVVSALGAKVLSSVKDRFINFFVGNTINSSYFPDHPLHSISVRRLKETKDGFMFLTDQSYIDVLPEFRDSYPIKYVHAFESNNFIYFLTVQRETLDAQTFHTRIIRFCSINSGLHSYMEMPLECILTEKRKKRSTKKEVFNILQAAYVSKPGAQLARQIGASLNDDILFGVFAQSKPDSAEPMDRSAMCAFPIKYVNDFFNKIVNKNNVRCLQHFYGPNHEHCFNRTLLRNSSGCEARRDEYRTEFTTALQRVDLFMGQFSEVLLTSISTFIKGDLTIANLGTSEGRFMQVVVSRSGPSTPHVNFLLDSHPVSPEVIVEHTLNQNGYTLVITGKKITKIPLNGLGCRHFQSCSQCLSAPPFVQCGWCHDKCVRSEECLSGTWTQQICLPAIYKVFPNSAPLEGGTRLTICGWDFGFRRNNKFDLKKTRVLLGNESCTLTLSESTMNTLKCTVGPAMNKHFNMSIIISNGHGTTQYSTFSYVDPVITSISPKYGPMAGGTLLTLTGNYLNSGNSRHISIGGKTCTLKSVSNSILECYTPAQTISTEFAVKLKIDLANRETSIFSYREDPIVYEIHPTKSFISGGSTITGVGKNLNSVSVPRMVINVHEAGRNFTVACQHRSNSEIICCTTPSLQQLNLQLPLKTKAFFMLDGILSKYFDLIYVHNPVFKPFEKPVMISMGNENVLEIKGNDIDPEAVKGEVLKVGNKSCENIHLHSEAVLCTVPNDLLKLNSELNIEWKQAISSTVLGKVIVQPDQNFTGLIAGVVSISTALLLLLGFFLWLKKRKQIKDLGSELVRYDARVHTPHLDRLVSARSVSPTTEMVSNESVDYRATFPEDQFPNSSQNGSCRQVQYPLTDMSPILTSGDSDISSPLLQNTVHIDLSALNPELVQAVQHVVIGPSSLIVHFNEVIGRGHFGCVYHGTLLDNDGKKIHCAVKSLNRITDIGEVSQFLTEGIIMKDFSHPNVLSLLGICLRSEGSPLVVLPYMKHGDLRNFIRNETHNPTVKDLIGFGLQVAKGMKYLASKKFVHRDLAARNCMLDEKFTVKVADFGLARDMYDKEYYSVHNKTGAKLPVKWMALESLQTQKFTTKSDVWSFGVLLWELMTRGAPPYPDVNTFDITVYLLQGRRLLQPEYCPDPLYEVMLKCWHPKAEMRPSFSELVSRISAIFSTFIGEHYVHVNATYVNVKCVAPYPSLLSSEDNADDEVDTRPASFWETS
Sequence of CD64a (FcγRI) (P12314 16-288 limits assumed): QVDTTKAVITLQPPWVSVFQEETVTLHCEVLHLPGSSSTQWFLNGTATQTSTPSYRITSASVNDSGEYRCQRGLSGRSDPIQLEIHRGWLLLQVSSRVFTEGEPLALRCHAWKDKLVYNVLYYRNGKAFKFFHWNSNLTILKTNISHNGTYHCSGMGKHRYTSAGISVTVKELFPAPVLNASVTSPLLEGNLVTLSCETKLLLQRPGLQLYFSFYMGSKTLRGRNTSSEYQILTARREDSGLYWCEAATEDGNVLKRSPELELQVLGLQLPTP

B1: v29001 (antibody)
chain 1: QVQLVQSGAEVKKPGASVKVSCKASGYIFTAYTMHWVRQAPGQGLEWMGWIKPNNGLANYAQKFQGRVTMTRDTSISTAYMELSRLRSDDTAVYYCARSEITTEFDYWGQGTLVTVSSASTKGPSVFPLAPSSKSTSGGTAALGCLVKDYFPEPVTVSWNSGALTSGVHTFPAVLQSSGLYSLSSVVTVPSSSLGTQTYICNVNHKPSNTKVDKKVEPKSCDKTHTCPPCPAPELLGGPSVFLFPPKPKDTLMISRTPEVTCVVVDVSHEDPEVKFNWYVDGVEVHNAKTKPREEQYNSTCYRVVSVLTVLHQDWLNGKEYKCKVSNKALPAPIEKTISKAKGQPREPQVYVYPPSRDELTKNQVSLTCLVKGFYPSDIAVEWESNGQPENNYKTTPPVLDSDGSFALVSKLTVDKSRWQQGNVFSCSVMHEALHNHYTQKSLSLSPG
chain 2: B1 chain 1 with Y353L, T368L, K394L, T396W, A407F, V409Y
chain 3: not shown
**Q.** What does the source list for B1?
**A.** fold greater Kd against control v17427 [1]: 5 fold; Kd [2]: 143 nM; Kd [3]: 0.57 nM; Kd [4]: 208 nM

B2: v17427 (antibody)
chain 1: QVQLVQSGAEVKKPGASVKVSCKASGYIFTAYTMHWVRQAPGQGLEWMGWIKPNNGLANYAQKFQGRVTMTRDTSISTAYMELSRLRSDDTAVYYCARSEITTEFDYWGQGTLVTVSSASTKGPSVFPLAPSSKSTSGGTAALGCLVKDYFPEPVTVSWNSGALTSGVHTFPAVLQSSGLYSLSSVVTVPSSSLGTQTYICNVNHKPSNTKVDKKVEPKSCDKTHTCPPCPAPELLGGPSVFLFPPKPKDTLMISRTPEVTCVVVDVSHEDPEVKFNWYVDGVEVHNAKTKPREEQYNSTYRVVSVLTVLHQDWLNGKEYKCKVSNKALPAPIEKTISKAKGQPREPQVYVYPPSRDELTKNQVSLTCLVKGFYPSDIAVEWESNGQPENNYKTTPPVLDSDGSFALVSKLTVDKSRWQQGNVFSCSVMHEALHNHYTQKSLSLSPG
chain 2: not shown
chain 3: not shown
**Q.** For B2, which Kd [5] is on record?
**A.** 0.02 nM

**Q.** What about the Kd [6] of the same binder?
**A.** 0.02 nM

**Q.** And the Kd [7]?
**A.** 588 nM

**Q.** What about the Kd [2] of the same binder?
**A.** 0.0486 nM

**Q.** What about the Kd [8] of the same binder?
**A.** 461 nM

**Q.** And the Kd [9]?
**A.** 2630 nM

**Q.** What about the Kd [10] of the same binder?
**A.** 1450 nM

**Q.** What about the Kd [11] of the same binder?
**A.** 410 nM

**Q.** And the Kd [3]?
**A.** 0.1 nM

**Q.** And the Kd [4]?
**A.** 297 nM

**Q.** And the Kd [12]?
**A.** 0.14 nM
